# How the values were obtained:
# [1] = target: Clostridium difficile toxin A (whole toxin A) (Clostridium difficile) (UniProt P16154)
# [2] = target: Clostridium difficile toxin A (whole toxin A) (Clostridium difficile) (UniProt P16154); assay: cell-based or functional assay
substance,measurement,setting,value
CDA1 (Merck anti-toxin A mAb used as a control) (antibody),Kd,[1],0.624 nM
same,koff,[1],0.000291 s⁻¹
same,kon,[1],480000 M⁻¹ s⁻¹
same,"IC50, in vitro toxin A neutralization on Vero cells",[2],0.347 µg/mL
